B1: complete mature yeast N-acetyl-L-glutamate kinase (yNAGK), residues 58-513 (enzyme, Saccharomyces cerevisiae, UniProt Q01217 58-513, looked up)
chain: VSSTNGFSATRSTVIQLLNNISTKREVEQYLKYFTSVSQQQFAVIKVGGAIISDNLHELASCLAFLYHVGLYPIVLHGTGPQVNGRLEAQGIEPDYIDGIRITDEHTMAVVRKCFLEQNLKLVTALEQLGVRARPITSGVFTADYLDKDKYKLVGNIKSVTKEPIEASIKAGALPILTSLAETASGQMLNVNADVAAGELARVFEPLKIVYLNEKGGIINGSTGEKISMINLDEEYDDLMKQSWVKYGTKLKIREIKELLDYLPRSSSVAIINVQDLQKELFTDSGAGTMIRRGYKLVKRSSIGEFPSADALRKALQRDAGISSGKESVASYLRYLENSDFVSYADEPLEAVAIVKKDTNVPTLDKFVCSDAAWLNNVTDNVFNVLRRDFPALQWVVSENDANIAWHFDKSQGSYLKGGKVLFWYGIDDINTISELVENFVKSCDTASTLNSSASS
modifications: for crystallization only: surface-exposed lysine residues reductively dimethylated
notes: N-acetyl-L-glutamate kinase of Saccharomyces cerevisiae, made by processing of the polyprotein precursor encoded by ARG5,6 (Uniprot Q01217); Amplified from pYB3 and inserted into pTrc99a; Methylated protein is stated for crystal NAGK1; Nothing says that the protein of the size exclusion run was methylated; also called complete yNAGK; complete mature yNAGK; source: E. coli BL21 (DE3), purified …
B2: truncated yNAGK spanning residues 58 to 356 (AAK domain, lacking the C-terminal DUF619 domain) (domain or fragment, Saccharomyces cerevisiae, UniProt Q01217 58-356, looked up)
chain: VSSTNGFSATRSTVIQLLNNISTKREVEQYLKYFTSVSQQQFAVIKVGGAIISDNLHELASCLAFLYHVGLYPIVLHGTGPQVNGRLEAQGIEPDYIDGIRITDEHTMAVVRKCFLEQNLKLVTALEQLGVRARPITSGVFTADYLDKDKYKLVGNIKSVTKEPIEASIKAGALPILTSLAETASGQMLNVNADVAAGELARVFEPLKIVYLNEKGGIINGSTGEKISMINLDEEYDDLMKQSWVKYGTKLKIREIKELLDYLPRSSSVAIINVQDLQKELFTDSGAGTMIRRGYKLVK
notes: A Se-Met-substituted form was used for phasing only (not deposited); also called truncated AAK; yNAGK lacking its C-terminal domain; source: E. coli BL21 (DE3), purified (HisTrap); not shown: MGH6 His-tag, N-terminal, kept

Key:
[1] = molecular target: the molecule itself; test: SEC; analytical size exclusion chromatography on Superdex 200 10/300, 24°C, 50 mM Hepes pH 7.5/0.25 M NaCl; elution volume against protein standards
[2] = molecular target: the molecule itself; test: crystal structure; truncated yNAGK, space group P212121, four subunits in the asymmetric unit; with NAG, with NAG and arginine, or ligand-free; grown at 4°C, 50 mM Na acetate pH 4.6, 0.2 M Na-malonate, 2% PEG-8K

| Protein | stoichiometry N [1] | stoichiometry N [2] |
| --- | --- | --- |
| B1 | 4 |  |
| B2 |  | 4 |
